Publication PMC3206940 (PLoS ONE, 2011)

B1: SARS-CoV 3C-like protease (3CL^pro) (enzyme)
chain: SGFRKMAFPSGKVEGCMVQVTCGTTTLNGLWLDDTVYCPRHVICTAEDMLNPNYEDLLIRKSNHSFLVQAGNVQLRVIGHSMQNCLLRLKVDTSNPKTPKYKFVRIQPGQTFSVLACYNGSPSGVYQCAMRPNHTIKGSFLNGSCGSVGFNIDYDCVSFCYMHHMELPTGVHAGTDLEGKFYGPFVDRQTAQAAGTDTTITLNVLAWLYAAVINGDRWFLNRFTTTLNDFNLVAMKYNYEPLTQDHVDILGPLSAQTGIAVLDMCAALKELLQNGMNGRTILGSTILEDEFTPFDVVRQCSGVTFQ
notes: also called 3CL^pro from SARS-CoV; main protease
B2: HCoV-OC43 3C-like protease (3CL^pro) (enzyme)
chain: SGIVKMVNPTSKVEPCVVSVTYGNMTLNGLWLDDKVYCPRHVICSASDMTNPDYTNLLCRVTSSDFTVLFDRLSLTVMSYQMRGCMLVLTVTLQNSRTPKYTFGVVKPGETFTVLAAYNGKPQGAFHVTMRSSYTIKGSFLCGSCGSVGYVIMGDCVKFVYMHQLELSTGCHTGTDFNGDFYGPYKDAQVVQLPIQDYIQSVNFLAWLYAAILNNCNWFIQSDKCSVEDFNVWALSNGFSQVKSDLVIDALASMTGVSLETLLAAIKRLKNGFQGRQIMGSCSFEDELTPSDVYQQLAGIKLQ
notes: also called 3CL^pro from HCoV-OC43; main protease; not shown: His6-SUMO or His6-MBP, N-terminal, cleaved

Molecular target: the molecule itself
Assay: SEC

Protein | stoichiometry N
B1 | 2
B2 | 2
